Test results from paper doi:10.1101/2023.02.03.526966.
pKd: −log10 of the molar value.

Target: recombinant mouse nidogen-2 (ELISA) (mouse) (UniProt O88322)
Experiment: ELISA

Sequence of UniProt O88322 (O88322 31-1403): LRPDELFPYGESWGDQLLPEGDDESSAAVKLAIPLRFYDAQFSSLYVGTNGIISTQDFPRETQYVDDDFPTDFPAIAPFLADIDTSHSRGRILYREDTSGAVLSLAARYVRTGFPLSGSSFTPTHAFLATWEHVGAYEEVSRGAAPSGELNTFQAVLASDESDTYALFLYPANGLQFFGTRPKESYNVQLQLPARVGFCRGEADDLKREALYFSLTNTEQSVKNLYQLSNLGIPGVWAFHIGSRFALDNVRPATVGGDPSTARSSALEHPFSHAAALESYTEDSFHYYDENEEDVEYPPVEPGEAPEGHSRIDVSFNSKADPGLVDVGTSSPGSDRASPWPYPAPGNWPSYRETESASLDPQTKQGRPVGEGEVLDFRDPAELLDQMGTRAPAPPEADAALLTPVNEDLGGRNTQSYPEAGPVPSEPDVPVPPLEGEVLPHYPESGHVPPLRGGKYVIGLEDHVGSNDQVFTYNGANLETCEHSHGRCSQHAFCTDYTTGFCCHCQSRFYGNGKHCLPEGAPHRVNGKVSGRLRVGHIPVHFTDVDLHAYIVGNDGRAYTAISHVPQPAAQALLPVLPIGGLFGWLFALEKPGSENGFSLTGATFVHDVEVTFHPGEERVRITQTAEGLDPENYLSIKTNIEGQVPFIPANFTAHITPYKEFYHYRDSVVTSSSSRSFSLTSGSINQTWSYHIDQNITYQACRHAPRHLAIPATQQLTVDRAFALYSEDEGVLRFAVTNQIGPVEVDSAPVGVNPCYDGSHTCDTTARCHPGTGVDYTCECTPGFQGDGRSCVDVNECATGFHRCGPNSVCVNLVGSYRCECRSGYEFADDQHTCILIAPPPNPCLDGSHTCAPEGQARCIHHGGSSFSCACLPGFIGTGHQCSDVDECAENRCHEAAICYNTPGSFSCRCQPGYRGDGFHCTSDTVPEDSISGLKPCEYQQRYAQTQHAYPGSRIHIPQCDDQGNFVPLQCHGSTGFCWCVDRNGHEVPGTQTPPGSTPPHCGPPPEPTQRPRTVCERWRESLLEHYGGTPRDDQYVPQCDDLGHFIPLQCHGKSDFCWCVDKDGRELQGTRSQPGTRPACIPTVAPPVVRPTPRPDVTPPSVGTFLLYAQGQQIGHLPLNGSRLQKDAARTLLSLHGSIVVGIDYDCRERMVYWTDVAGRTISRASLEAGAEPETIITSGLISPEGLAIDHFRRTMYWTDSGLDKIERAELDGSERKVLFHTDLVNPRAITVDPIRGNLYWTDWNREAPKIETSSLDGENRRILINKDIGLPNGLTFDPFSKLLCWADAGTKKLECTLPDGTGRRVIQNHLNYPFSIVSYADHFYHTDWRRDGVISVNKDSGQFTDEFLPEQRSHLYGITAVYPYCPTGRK

Substance	pKd
LAR FNIII2-FLAG (purified soluble 2nd FNIII domain of LAR) (domain or fragment)	5.70
LAR FNIII5-FLAG (purified soluble 5th FNIII domain of LAR) (domain or fragment)	5.85
LAR FNIII4-FLAG (purified soluble 4th FNIII domain of LAR) (domain or fragment)	5.72
LAR FNIII7-FLAG (purified soluble 7th FNIII domain of LAR) (domain or fragment)	5.60
